Patent US20250340881A1, “PHARMACEUTICAL COMPOSITION FOR TREATING CANCER COMPRISING FOXM1 MUTANT OR FOXM1 SHRNA” (Industry-University Cooperation Foundation Hanyang …, priority 2022, published 2025)

Assays:
A549 lung cancer cells [1] = test: Real-time PCR of EMT, M2-inducing and immune evasion factors in A549 cells treated with Thiostrepton; type: cell-based; conditions: 5 μM, 48 h, Mock and S25E cells
A549 lung cancer cells [2] = test: EMT marker expression (immunoblot, real-time PCR) in A549 cells expressing FoxM1 WT or mutants; type: cell-based; conditions: FoxM1 WT
From the text: To establish a stabilized cell line expressing WT, phosphorylation, and non-phosphorylated point mutants of FoxM1 in lung cancer cells, A549 cells were first infected with pLVX-Tet3G expressing lentivirus, and the infected cells were selected by treating with G418 for 5 days. The selected A549Tet3G cells were infected with lentiviruses expressing WT and phosphorylated point mutants (S25E, S361E, S715E) and non-phosphorylated point mutants (S25A, S361A, S715A) of FoxM1, and then treated with puromycin for 48 hours to establish a stabilized cell line. The established cells were treated with 2 μg/ml of doxycycline to induce expression of WT, phosphorylation, and non-phosphorylated point mutants of FoxM1, and the mRNA and protein expression levels of each FoxM1 point mutant were determined to confirm whether they were well expressed. As shown in FIG. 4A and FIG. 4B, it was confirmed that the WT and each point mutant form of FoxM1 were well expressed through mRNA and protein expression levels. It was observed that the expression levels of N-cadherin and vimentin were higher, and the expression levels of E-cadherin were lower in lung cancer cells expressing the phosphorylated form of FoxM1, specifically, phosphorylated at the phosphorylation site S25, compared to the cells expressing the non-phosphorylated form of FoxM1. In addition, when it was examined whether the expression of these phosphorylation and non-phosphorylated point mutants of FoxM1 affected cell proliferation, it was observed that it had no significant effect on cell proliferation (FIG. 4C).
To establish a stabilized cell line expressing FoxM1 WT in A549 lung cancer cells, first, pLVX-Tet3G expressing lentivirus was infected into cells, and the infected cells were selected by treating 500 μg/ml of G418 for 5 days. The selected A549^Tet3G cells were infected with lentiviruses expressing FoxM1 WT or Mock, and the stabilized cell lines were established by treating with 2 μg/ml of puromycin for 48 hours. After inducing the expression of FoxM1 WT by treating the established cells with 2 μg/ml of doxycycline, the protein expression was observed by immunoblot.

THP-1 cells = test: M1 and M2 marker mRNA in THP-1 cells co-cultured with FoxM1-expressing A549 cells; type: cell-based, human; conditions: co-culture 48 h
From the text: In the animal tissues, it was confirmed that both PD-L1 protein expression and CD274 mRNA expression were increased in cancer cells expressing FoxM1 (FIG. 5D, 5E). […] From the results described above, we investigated whether FoxM1 phosphorylated point mutant (S25E) affects the polarization of macrophages in the tumor microenvironment. After co-culturing human monocyte THP-1 cells and the cell groups over-expressing FoxM1 point mutants, M1 and M2 markers were examined in THP-1 cells.
Next, an expression suppression system for suppressing FoxM1 expression was established to observe whether the FoxM1 phosphorylated point mutant (S25E) directly affects polarization to M2 macrophages. First, to inhibit the expression of mRNA of FoxM1, a pLKO-puro.1-hFoxM1 plasmid was produced using a pLKO-puro.1 vector to construct shRNAs targeting nucleotide sequences at 709-729 positions in the human FoxM1 mRNA sequence. The following sequences can be used as target sequences for human FoxM1 shRNA production, and oligonucleotides with the following sequences can be used as primers for shRNA production. The gene accession number for human FoxM1 mRNA in PubMed is NM_001243088.2, and it contains 3507 bp. The following primers were used for shRNA production: 5′-ccgg-[…]-ctcgag-[…]-tttttg-3′ (forward primer) and 5′-aattcaaaaa-AGCAAG AGATGGAGGAAAAGG-ctcgag-[…]-3′ (reverse primer). Then, after purifying and concentrating each lentivirus for expression of the produced FoxM1 shRNA, it was constructed by infecting a lung cancer cell line, A549 cells expressing FoxM1, with the virus. The mRNA expression of M2 markers, CD163, CD206, and VEGFA, was examined after co-culturing lung cancer cells (4×10^4 cells/ml) with suppressed FoxM1 expression and THP-1 cells (1.2×10^5 cells/ml) for 48 h. […] When co-culturing with cancer cells expressing the FoxM1 variant S25E, it was confirmed that the M2 markers CD163, CD206, and VEGFA were all increased by 2 folds or more in THP1 cells compared to the control group (Mock_shCtrl) (FIG. 6D).
After co-culturing the FoxM1 WT protein over-expressed cancer cells (4×10^4 cells/ml) and THP-1 cells (1.2×10^5 cells/ml) for 48 h, the mRNA expression of M1 markers INOS and IL12B was not altered, while the mRNA expression of all the M2 markers IL10, CD163, CD206, TGFB1, and VEGFA was increased in the FoxM1 WT (FIG. 13A). Among them, CD206, TGFB1, and VEGFA had been known as markers for M2d-tumor-associated macrophages (M2d-TAM) (JAYASINGAM, Sharmilla Devi, et al., Frontiers in Oncology (2020) 9: 1512.).

A549 cells [3] = test: ELISA of TGFB1 and VEGFA proteins in A549 culture medium; type: cell-based; conditions: medium cultured 48 h
Description: (§1) In addition, after co-culturing of human monocyte THP-1 cells and cell groups over-expressing FoxM1 point mutations for 48 hours under the conditions where the previous experiments were performed, the mRNA expression levels of M2d-inducing factors IL4, IL6, IL10, and VEGFA in A549 cells expressing FoxM1 S25E were analyzed. […] The amounts of TGFB1 and VEGFA proteins in the medium cultured for 48 h with A549 cells (4×10^4 cells/ml) expressing FoxM1 variants were measured by ELISA.

A549 cells [4] = test: PD-L1 (CD274) mRNA in A549 cells by real-time PCR; type: cell-based; conditions: A549 cells expressing the protein
Description: To examine the mRNA expression levels of PD-1 and PD-L1, which are involved in solid tumor immune evasion, in THP-1 cells and the cells expressing the FoxM1 phosphorylated point mutant, the expression of PD-1 (CD279) mRNA, an immune evasion factor, was measured by qRT-PCR in THP-1 monocytes co-cultured with A549^S25E cells for 48 h (FIG. 7B). It was observed that the expression of mRNA of PD-L1 (CD274), an immune evasion factor, increased by 2 folds in the A549^S25E cells expressing the phosphorylated point mutant compared to the control group.

lung tissues = test: CD68 and CD163 immunostaining and immunoblot of lung tissues of injected mice; type: in vivo; conditions: lung tissues of injected mice
Description: Additionally, the increase of macrophages around the tumor was examined by immunoblot using lung tissue lysates. […] Through the results of this study, it could be observed that the non-phosphorylated point mutant had the effect of inhibiting polarization into tumor-associated macrophages.
Furthermore, CD68, a marker for a broad range of macrophages, and CD163, a marker for tumor-associated macrophages, were analyzed in lung tissues of mice using immunostaining. It was determined that the expression of both CD68 and CD163 markers was increased in the lung tissues of mice injected with the FoxM1 WT protein over-expressed cells (FIG. 13D). Through the present results, it could be observed that there was an effect of promoting the polarization of M2 tumor-associated macrophages in lung cancer cells expressing the FoxM1 WT protein.

A549 cells [5] = test: M2d-inducing factor mRNA in A549 cells after co-culture with THP-1 cells; type: cell-based; conditions: co-culture with THP-1 48 hours
Description: as §1

| Molecule | expression of IL6, VEGFA and CD274 (PD-L1) (A549 lung cancer cells [1]) | expression of mesenchymal markers CDH2, vimentin, SNAI1 and SNAI2 (A549 lung cancer cells [1]) | expression of IL6, VEGFA and CD274 (PD-L1) (A549 lung cancer cells [1]; listed as thiostepton) | expression of mesenchymal markers CDH2, vimentin, SNAI1 and SNAI2 (A549 lung cancer cells [1]; listed as thiostepton) | FoxM1 expression, real-time polymerase chain reaction (A549 lung cancer cells [2]) | expression of E-cadherin, real-time polymerase chain reaction (reduced by) (A549 lung cancer cells [2]) | expression of N-cadherin, real-time polymerase chain reaction (A549 lung cancer cells [2]) | expression of vimentin, real-time polymerase chain reaction (A549 lung cancer cells [2]) | expression of E-cadherin, immunoblot (decreased by) (A549 lung cancer cells [2]; doxycycline 2 μg/ml) | expression of N-cadherin, immunoblot (A549 lung cancer cells [2]; doxycycline 2 μg/ml) | expression of vimentin, immunoblot (A549 lung cancer cells [2]; doxycycline 2 μg/ml) | mRNA expression of M1 markers INOS and IL12B in THP-1 cells (THP-1 cells) | mRNA expression of M2 markers IL10, CD163, CD206, TGFB1 and VEGFA in THP-1 cells (in words) (THP-1 cells) | amounts of TGFB1 and VEGFA proteins in medium (in words) (A549 cells [3]) | mRNA expression of PD-L1 (CD274) compared to the control group (A549 cells [4]) | expression of CD68 and CD163 markers, immunostaining (in words) (lung tissues) | mRNA expression levels of M2d-inducing factors IL4, IL6, IL10 and VEGFA in A549 cells (in words) (A549 cells [5]) |
| --- | --- | --- | --- | --- | --- | --- | --- | --- | --- | --- | --- | --- | --- | --- | --- | --- | --- |
| C=C(NC(=O)C(=C)NC(=O)c1csc(C2=N[C@@H]3c4csc(n4)[C@H]4NC(=O)c5csc(n5)[C@H]([C@](C)(O)[C@@H](C)O)NC(=O)[C@H]5CSC(=N5)/C(=C/C)NC(=O)[C@H]([C@@H](C)O)NC(=O)c5csc(n5)[C@]3(CC2)NC(=O)[C@H](C)NC(=O)C(=C)NC(=O)[C@H](C)NC(=O)[C@H]([C@@H](C)CC)N[C@@H]2C=Cc3c([C@H](C)O)cc(nc3[C@H]2O)C(=O)O[C@@H]4C)n1)C(N)=O [Thiostrepton] | significantly reduced | significantly reduced | reduced | reduced | – | – | – | – | – | – | – | – | – | – | – | – | – |
| FoxM1 WT: wild-type FoxM1 protein (SEQ ID NO: 1) over-expressed by lentivirus in A549 cells (protein, listed as Homo sapiens) MKTSPRRPLILKRRRLPLPVQNAPSETSEEEPKRSPAQQESNQAEASKEVAESNSCKFPAGIKIINHPTMPNTQVVAIPNNANIHSIITALTAKGKESGSSGPNKFILISCGGAPTQPPGLRPQTQTSYDAKRTEVTLETLGPKPAARDVNLPRPPGALCEQKRETCDGEAAGCTINNSLSNIQWLRKMSSDGLGSRSIKQEMEEKENCHLEQRQVKVEEPSRPSASWQNSVSERPPYSYMAMIQFAINSTERKRMTLKDIYTWIEDHFPYFKHIAKPGWKNSIRHNLSLHDMFVRETSANGKVSFWTIHPSANRYLTLDQVFKQQQKRPNPELRRNMTIKTELPLGARRKMKPLLPRVSSYLVPIQFPVNQSLVLQPSVKVPLPLAASLMSSELARHSKRVRIAPKVLLAEEGIAPLSSAGPGKEEKLLFGEGFSPLLPVQTIKEEEIQPGEEMPHLARPIKVESPPLEEWPSPAPSFKEESSHSWEDSSQSPTPRPKKSYSGLRSPTRCVSEMLVIQHRERRERSRSRRKQHLLPPCVDEPELLFSEGPSTSRWAAELPFPADSSDPASQLSYSQEVGGPFKTPIKETLPISSTPSKSVLPRTPESWRLTPPAKVGGLDFSPVQTSQGASDPLPDPLGLMDLSTTPLQSAPPLESPQRLLSSEPLDLISVPFGNSSPSDIDVPKPGSPEPQVSGLAANRSLTEGLVLDTMNDSLSKILLDISFPGLDEDPLGPDNINWSQFIPELQ | – | – | – | – | 4.4 folds | 0.8 folds | 1.5 folds | 1.7 folds | 0.6 folds | 2.2 folds | 2.8 folds | not altered | increased | markedly increased | about 2.3 folds | increased | increased |
